Experimental findings from PMC5544353 are described below.

The target of the assay is Reconstituted CENP-A chromatin (CENP-A nucleosome arrays with Myc-tagged histone H4) (UniProt Q569M3). Kind of assay: chromatin-bead binding read by immunofluorescence.
UniProt Q569M3, sequence (Q569M3 whole entry, looked up): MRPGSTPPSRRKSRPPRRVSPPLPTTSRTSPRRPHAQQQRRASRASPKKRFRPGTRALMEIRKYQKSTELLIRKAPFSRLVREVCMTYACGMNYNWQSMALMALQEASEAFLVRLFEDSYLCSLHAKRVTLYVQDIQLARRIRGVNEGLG

“M18BP1-2 truncation, amino acids 747-944 (in vitro translated) (domain or fragment)” came in with a binding as percent of full-length M18BP1-2 of 53%.
Substance “Xenopus laevis M18BP1-1 (natural protein)” showed a fold enrichment on CENP-A chromatin relative to H3 chromatin of 2.5 fold.
On the same count and under the same terms, the result for “Xenopus laevis M18BP1-2, full length (natural protein)” reads 5 fold.
